In the Human Domainome abundance scans (Beltran et al. 2025):
± gives the uncertainty stated by the source.

B1: Cullin-9, residues 2234 to 2275; numbered along this chain, Q8IWT3 (parent)
chain: KRCPSCQAPIEKNEGCLHMTCAKCNHGFCWRCLKSWKPNHKD

Variants of: B1
Test: abundance fitness (aPCA) (normalised: wild type 0, dead -1); higher = more abundant; growth selection in yeast, the domain comes from the species named
Conditions: Homo sapiens

Variant	abundance fitness
KRCPSCQLPIEKNEGCLHMTCAKCNHGFCWRCLKSWKPNHKD [A8L]	-0.256 ± 0.083
KRCPSCQPPIEKNEGCLHMTCAKCNHGFCWRCLKSWKPNHKD [A8P]	-0.555 ± 0.28
KRCPSCQIPIEKNEGCLHMTCAKCNHGFCWRCLKSWKPNHKD [A8I]	-0.341 ± 0.27
KRCPSCQVPIEKNEGCLHMTCAKCNHGFCWRCLKSWKPNHKD [A8V]	-0.231 ± 0.083
KRCPSCQKPIEKNEGCLHMTCAKCNHGFCWRCLKSWKPNHKD [A8K]	-0.006 ± 0.13
KRCPSCQMPIEKNEGCLHMTCAKCNHGFCWRCLKSWKPNHKD [A8M]	-0.155 ± 0.1
KRCPSCQSPIEKNEGCLHMTCAKCNHGFCWRCLKSWKPNHKD [A8S]	-0.058 ± 0.085
KRCPSCQCPIEKNEGCLHMTCAKCNHGFCWRCLKSWKPNHKD [A8C]	-0.213 ± 0.12
KRCPSCQYPIEKNEGCLHMTCAKCNHGFCWRCLKSWKPNHKD [A8Y]	-0.005 ± 0.14
KRCPSCQGPIEKNEGCLHMTCAKCNHGFCWRCLKSWKPNHKD [A8G]	0.023 ± 0.074
KRCPSCQTPIEKNEGCLHMTCAKCNHGFCWRCLKSWKPNHKD [A8T]	-0.027 ± 0.11
KRCPSCQNPIEKNEGCLHMTCAKCNHGFCWRCLKSWKPNHKD [A8N]	0.305 ± 0.22
KRCPSCQFPIEKNEGCLHMTCAKCNHGFCWRCLKSWKPNHKD [A8F]	-0.01 ± 0.13
KRCPSCQDPIEKNEGCLHMTCAKCNHGFCWRCLKSWKPNHKD [A8D]	-0.284 ± 0.12
KRCPSCQRPIEKNEGCLHMTCAKCNHGFCWRCLKSWKPNHKD [A8R]	-0.153 ± 0.072
KRCPSCQQPIEKNEGCLHMTCAKCNHGFCWRCLKSWKPNHKD [A8Q]	0.014 ± 0.11
KRCPSCQAHIEKNEGCLHMTCAKCNHGFCWRCLKSWKPNHKD [P9H]	-0.291 ± 0.16
KRCPSCQAQIEKNEGCLHMTCAKCNHGFCWRCLKSWKPNHKD [P9Q]	0.014 ± 0.1
KRCPSCQALIEKNEGCLHMTCAKCNHGFCWRCLKSWKPNHKD [P9L]	-0.39 ± 0.089
KRCPSCQAKIEKNEGCLHMTCAKCNHGFCWRCLKSWKPNHKD [P9K]	-0.349 ± 0.15

Variant	abundance fitness
KRCPSCQASIEKNEGCLHMTCAKCNHGFCWRCLKSWKPNHKD [P9S]	-0.347 ± 0.095
KRCPSCQADIEKNEGCLHMTCAKCNHGFCWRCLKSWKPNHKD [P9D]	-0.267 ± 0.42
KRCPSCQAWIEKNEGCLHMTCAKCNHGFCWRCLKSWKPNHKD [P9W]	0.335 ± 0.14
KRCPSCQAVIEKNEGCLHMTCAKCNHGFCWRCLKSWKPNHKD [P9V]	-0.277 ± 0.098
KRCPSCQANIEKNEGCLHMTCAKCNHGFCWRCLKSWKPNHKD [P9N]	-0.026 ± 0.26
KRCPSCQARIEKNEGCLHMTCAKCNHGFCWRCLKSWKPNHKD [P9R]	-0.048 ± 0.087
KRCPSCQAMIEKNEGCLHMTCAKCNHGFCWRCLKSWKPNHKD [P9M]	0.056 ± 0.1
KRCPSCQAEIEKNEGCLHMTCAKCNHGFCWRCLKSWKPNHKD [P9E]	0.051 ± 0.092
KRCPSCQATIEKNEGCLHMTCAKCNHGFCWRCLKSWKPNHKD [P9T]	-0.107 ± 0.12
KRCPSCQAIIEKNEGCLHMTCAKCNHGFCWRCLKSWKPNHKD [P9I]	-0.53 ± 0.41
KRCPSCQAYIEKNEGCLHMTCAKCNHGFCWRCLKSWKPNHKD [P9Y]	-0.265 ± 0.18
KRCPSCQAFIEKNEGCLHMTCAKCNHGFCWRCLKSWKPNHKD [P9F]	-0.373 ± 0.21
KRCPSCQACIEKNEGCLHMTCAKCNHGFCWRCLKSWKPNHKD [P9C]	-0.074 ± 0.13
KRCPSCQAAIEKNEGCLHMTCAKCNHGFCWRCLKSWKPNHKD [P9A]	-0.198 ± 0.09
KRCKSCQAPIEKNEGCLHMTCAKCNHGFCWRCLKSWKPNHKD [P4K]	-1.44 ± 0.33
KRCWSCQAPIEKNEGCLHMTCAKCNHGFCWRCLKSWKPNHKD [P4W]	-0.147 ± 0.092
KRCISCQAPIEKNEGCLHMTCAKCNHGFCWRCLKSWKPNHKD [P4I]	0.013 ± 0.14
KRCYSCQAPIEKNEGCLHMTCAKCNHGFCWRCLKSWKPNHKD [P4Y]	0.231 ± 0.17
KRCCSCQAPIEKNEGCLHMTCAKCNHGFCWRCLKSWKPNHKD [P4C]	0.182 ± 0.12
KRCNSCQAPIEKNEGCLHMTCAKCNHGFCWRCLKSWKPNHKD [P4N]	-1.15 ± 0.28

Variant	abundance fitness
KRCDSCQAPIEKNEGCLHMTCAKCNHGFCWRCLKSWKPNHKD [P4D]	-1.47 ± 0.39
KRCTSCQAPIEKNEGCLHMTCAKCNHGFCWRCLKSWKPNHKD [P4T]	0.002 ± 0.1
KRCQSCQAPIEKNEGCLHMTCAKCNHGFCWRCLKSWKPNHKD [P4Q]	-0.351 ± 0.11
KRCESCQAPIEKNEGCLHMTCAKCNHGFCWRCLKSWKPNHKD [P4E]	-1.27 ± 0.14
KRCASCQAPIEKNEGCLHMTCAKCNHGFCWRCLKSWKPNHKD [P4A]	0.098 ± 0.078
KRCVSCQAPIEKNEGCLHMTCAKCNHGFCWRCLKSWKPNHKD [P4V]	0.117 ± 0.078
KRCLSCQAPIEKNEGCLHMTCAKCNHGFCWRCLKSWKPNHKD [P4L]	0.065 ± 0.094
KRCMSCQAPIEKNEGCLHMTCAKCNHGFCWRCLKSWKPNHKD [P4M]	-0.079 ± 0.11
KRCGSCQAPIEKNEGCLHMTCAKCNHGFCWRCLKSWKPNHKD [P4G]	0.056 ± 0.07
KRCHSCQAPIEKNEGCLHMTCAKCNHGFCWRCLKSWKPNHKD [P4H]	-0.022 ± 0.32
KRCRSCQAPIEKNEGCLHMTCAKCNHGFCWRCLKSWKPNHKD [P4R]	-0.41 ± 0.089
KRCSSCQAPIEKNEGCLHMTCAKCNHGFCWRCLKSWKPNHKD [P4S]	-0.129 ± 0.099
KRCFSCQAPIEKNEGCLHMTCAKCNHGFCWRCLKSWKPNHKD [P4F]	0.434 ± 0.21
KRCPDCQAPIEKNEGCLHMTCAKCNHGFCWRCLKSWKPNHKD [S5D]	-0.147 ± 0.12
KRCPWCQAPIEKNEGCLHMTCAKCNHGFCWRCLKSWKPNHKD [S5W]	0.313 ± 0.085
KRCPECQAPIEKNEGCLHMTCAKCNHGFCWRCLKSWKPNHKD [S5E]	0.496 ± 0.091
KRCPICQAPIEKNEGCLHMTCAKCNHGFCWRCLKSWKPNHKD [S5I]	-0.142 ± 0.23
KRCPTCQAPIEKNEGCLHMTCAKCNHGFCWRCLKSWKPNHKD [S5T]	0.224 ± 0.087
KRCPPCQAPIEKNEGCLHMTCAKCNHGFCWRCLKSWKPNHKD [S5P]	-0.401 ± 0.1
KRCPKCQAPIEKNEGCLHMTCAKCNHGFCWRCLKSWKPNHKD [S5K]	0.489 ± 0.11
